From patent publication US20260199458A1 (INCENDIA THERAPEUTICS, published 2026)
Values joined by “and” are separate entries in the source; they are usually repeats but may differ in a detail not shown here. Identical values can stand only once.

Assays:
[1] = biological target: T1, Human DDR1 extracellular domain (human, UniProt Q08345 21-417); assay: Biacore, DDR1 extracellular domain; KD in mass units (ng/mL), same fit as the 1.36 nM of r7c2
T1 construct: extracellular domain
Protocol: (§1) First, 9H-1 was tested for its affinity to DDR1 protein from human, mouse, rat, and cynomolgus monkey.

[2] = biological target: T2, Mouse DDR1 extracellular domain (mouse, UniProt Q03146 22-415); assay: Biacore, DDR1 extracellular domain
T2 construct: extracellular domain
T2 sequence (looked up): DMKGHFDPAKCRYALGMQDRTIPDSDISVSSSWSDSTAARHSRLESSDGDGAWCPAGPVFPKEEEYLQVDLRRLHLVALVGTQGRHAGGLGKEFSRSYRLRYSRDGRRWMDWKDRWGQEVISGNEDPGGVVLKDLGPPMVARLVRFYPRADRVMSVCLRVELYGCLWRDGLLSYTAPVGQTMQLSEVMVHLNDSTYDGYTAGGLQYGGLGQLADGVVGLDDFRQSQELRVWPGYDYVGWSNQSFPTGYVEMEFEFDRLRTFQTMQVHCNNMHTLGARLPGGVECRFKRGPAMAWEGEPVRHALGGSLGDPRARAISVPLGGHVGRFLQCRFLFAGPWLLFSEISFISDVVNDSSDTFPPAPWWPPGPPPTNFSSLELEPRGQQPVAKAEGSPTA
Protocol: as §1

[3] = biological target: T3, Cynomolgus monkey DDR1 extracellular domain (cynomolgus monkey, UniProt A0A2K5V739 47-443); assay: Biacore, DDR1 extracellular domain
T3 construct: extracellular domain; also called Cyno DDR1
T3 sequence: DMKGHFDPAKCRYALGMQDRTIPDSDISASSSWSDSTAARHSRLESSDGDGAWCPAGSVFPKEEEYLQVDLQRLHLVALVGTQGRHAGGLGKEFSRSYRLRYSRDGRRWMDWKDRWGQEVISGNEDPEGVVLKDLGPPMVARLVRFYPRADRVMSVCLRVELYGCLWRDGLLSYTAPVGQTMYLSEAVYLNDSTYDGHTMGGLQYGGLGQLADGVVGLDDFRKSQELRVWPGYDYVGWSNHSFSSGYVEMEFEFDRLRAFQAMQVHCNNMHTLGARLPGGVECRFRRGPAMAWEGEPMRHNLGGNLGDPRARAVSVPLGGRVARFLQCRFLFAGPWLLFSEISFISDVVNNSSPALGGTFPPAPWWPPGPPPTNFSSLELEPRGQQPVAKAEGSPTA
Protocol: as §1

[4] = biological target: T1, Human DDR1 extracellular domain; assay: Biacore, DDR1 extracellular domain
Protocol: as §1

[5] = biological target: T4, Rat DDR1 extracellular domain (rat, UniProt Q63474 22-414); assay: Biacore, DDR1 extracellular domain
T4 construct: extracellular domain
T4 sequence (looked up): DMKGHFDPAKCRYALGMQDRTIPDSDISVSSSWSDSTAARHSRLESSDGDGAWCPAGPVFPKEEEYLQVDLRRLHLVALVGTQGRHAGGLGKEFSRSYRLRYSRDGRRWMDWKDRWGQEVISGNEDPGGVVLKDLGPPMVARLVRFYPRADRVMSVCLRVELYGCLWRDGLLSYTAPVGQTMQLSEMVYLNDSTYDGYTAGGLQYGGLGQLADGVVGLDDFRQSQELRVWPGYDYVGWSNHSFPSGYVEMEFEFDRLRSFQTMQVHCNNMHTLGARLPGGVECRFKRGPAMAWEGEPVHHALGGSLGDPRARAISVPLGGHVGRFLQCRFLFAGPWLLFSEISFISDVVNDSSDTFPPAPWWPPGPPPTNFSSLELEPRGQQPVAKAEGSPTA
Protocol: as §1

B1: 9H-1 (humanized DDR1-9, WT IgG1 Fc) (antibody, V domains shown)
VH: QVQLVESGGRVVQPGRSLRLSCTASGFSLNRYYMLWVRQAPGKGLEWIGTISYGDTTYYASWAKGRFTISRDNSKNTLYLQMNSLRAEDTAVYYCARADTGDNGYLGLQLWGQGTLVTVSS
VL: DIQMTQSPSSVSASVGDRVTITCQASQSIGSVLAWYQQKPGKAPKLLISGVFDLASGVPSRFSGSGSGTDFTLTISSLQPEDFATYYCQYIPYGSSPFGGGTKVEIKR
notes: In some embodiments the heavy chain lacks the terminal lysine; also called PRTH-101; humanized DDR1-9 (9H-1)_1 WT IgG1 Fc
Question: For B1, which Kd [1] is on record?
Answer: The Kd was 0.204 µg/mL.

Question: And the Kd [2]?
Answer: Its Kd is 16.9 nM and 2.54 µg/mL.

Question: And the koff [2]?
Answer: The koff was 0.00397 s⁻¹.

Question: What about the kon [2] of the same binder?
Answer: Its kon is 235000 M⁻¹ s⁻¹.

Question: And the t1/2 [2]?
Answer: Its t1/2 is 2.9 min.

Question: And the Kd [3]?
Answer: The Kd was 1.3 nM and 0.195 µg/mL.

Question: What about the koff [3] of the same binder?
Answer: The koff was 0.00015 s⁻¹.

Question: What about the kon [3] of the same binder?
Answer: The kon was 116000 M⁻¹ s⁻¹.

Question: And the t1/2 [3]?
Answer: Its t1/2 is 77 min.

Question: And the Kd [4]?
Answer: The Kd was 1.36 nM.

Question: What about the koff [4] of the same binder?
Answer: Its koff is 0.000181 s⁻¹.

Question: And the kon [4]?
Answer: Its kon is 133000 M⁻¹ s⁻¹.

Question: And the t1/2 [4]?
Answer: Its t1/2 is 64 min.

Question: And the Kd [5]?
Answer: The Kd was 2.28 nM and 0.342 µg/mL.

Question: And the koff [5]?
Answer: The koff was 0.000455 s⁻¹.

Question: What about the kon [5] of the same binder?
Answer: Its kon is 199000 M⁻¹ s⁻¹.

Question: What about the t1/2 [5] of the same binder?
Answer: The t1/2 was 25.3 min.
